Key:
[1] = test system: pro-TEVcs-BDNF human recombinant; test: Cleavage/maturation of pro-TEVcs-BDNF in transfected HEK293T cells (Western blot); type: cell-based
CA1 pyramidal neurons = test: Dendritic spines of CA1 pyramidal neurons in transfected organotypic hippocampal sections; type: cell-based, rats; details: unica-secTEV activated with rapamycin for 24 h
Excerpt: In order to test the biological activity of mature BDNF obtained with the chemogenetic strategy in neurons, BDNF was immunoprecipitated and purified by HEK293T cells co-transfected with unica-secTEV and treated with rapamycin. […] In fact, BDNF biochemical features, including the positive charges on its surface, prevent the spreading thereof and keep its action locally at level of synapses. This feature obstructs even the effectiveness of injections of purified BDNF as therapeutic strategy. Since the extracellular application could involve both sides, even the exogenous application of purified BDNF is not useful in sectioning the roles of pre- and postsynaptic release. […] These gene approaches involve the deletion both of proBDNF and BDNF, the contribution of each form to the observed effect cannot be distinguished. The chemogenetic strategy developed by the inventors to control the protein cleavage is useful even to evaluate the specific autocrine action of BDNF inducible intracellular maturation in CA1 pyramidal neurons. In order to monitor BDNF specific effects in the postsynaptic neurons, organo-typical sections containing the hippocampus of rats with unica-secTEV, pro-TEVcs-BDNF and dsRed2 were transfected ballistically to display in a fluorescent way CA1 pyramidal neurons. After 48 h, unica-secTEV with rapamycin was activated for 24 h.

TrkB = test: ERK phosphorylation in cells expressing pro-TEVcs-BDNF, unica-secTEV and TrkB-mGFP; type: cell-based; details: chemogenetic activation of unica-secTEV; co-expressed TrkB-mGFP
Excerpt: In order to evaluate if mature BDNF obtained after activation of unica-secTEV was able to bind and activate its TrkB endogenous target receptor, pro-TEVcs-BDNF was expressed, unica-secTEV with TrkB-mGFP.

[2] = test system: hippocampal organotypic sections; test: ERK phosphorylation in hippocampal organotypic sections treated with purified mature BDNF; type: cell-based, rat; details: hippocampal organotypic sections treated for 30 minutes, Western blot
Procedure: HEK293T cells were transfected (PEI MAX—Polysciences, Inc.) with the plasmids codifying for unica-secTEV (pcDNA-unica-secTEV-SV5) and pro-TEVcs-BDNF (HA-pro-TEVcs-BDNF-Flag-SEP) and left for 24 h at 37° C., 5% CO2.
After 24 h the cells were treated for 1-3 h with rapamycin (1 μM) or DMSO as control. The cells were washed with cold PBS and lysed with lysis buffer containing rapamycin (1 μM) or DMSO. The lysate was immunoprecipitated with FLAG-M2-beads for 1 h and subsequently FLAG peptide (sigma F3290-4 mg) was added. After 1 h the beads were removed by Micro bio-spin Colums®—Bio-Rad. The eluted protein was kept at −20° C. Once quantified by commercially available ELISA kits its biological effect was tested as described in FIG. 6.
In order to test the biological activity of mature BDNF obtained with the chemogenetic strategy in neurons, BDNF was immunoprecipitated and purified by HEK293T cells co-transfected with unica-secTEV and treated with rapamycin. […] In fact, BDNF biochemical features, including the positive charges on its surface, prevent the spreading thereof and keep its action locally at level of synapses. This feature obstructs even the effectiveness of injections of purified BDNF as therapeutic strategy. […]

[3] = molecular target: pro-TEVcs-BDNF (HA-pro-TEVcs-BDNF-Flag-SEP), P23560
[4] = mutations I138T, S153N and T180A; relative to wild-type TEV; cited from earlier work
pro-TEVcs-BDNF = test: In vitro protease test after immunoprecipitation of pro-TEVcs-BDNF and unica-TEV; type: biochemical; details: in presence of rapamycin; SDS-PAGE
CFP-TEVcs-YFP = test: Cleavage of CFP-TEVcs-YFP substrate in the cytosol of transfected HEK293T cells (Western blot); type: cell-based
Excerpt: Enzymatic Activity of Unica-TEV in Vital Cells • 13) Use CFP-TEVcs-YFP synthetic recombinant protein as substrate;
This artificial construct has two fluorophores conjugated by the cleavage sequence recognized by TEV (TEVcs). AntiGFP (Biolegend) antibody was used to verify cleavage of CFP-TEVcs-YFP by unica-TEV.
In order to do it, HEK293T cells were transfected (PEI MAX—Polysciences, Inc.) with the plasmids codifying constitutively active wild-type TEV (pcDNA-TEV), and engineered TEV with UniRapR (pcDNA-unica-TEV) and left to grow for 24-48 h at 37° C., 5% CO2.
For both of them, CFP-TEVcs-YFP was co-transfected.
After 24h the cells were treated for 1-3 h with rapamycin (1 μM) or DMSO as control. The cells were washed with cold PBS and lysed with lysis buffer containing rapamycin (1 μM) or DMSO. 10% of the volume of samples was prepared (addition of 2× Laemmli protein sample buffer+boiling for 5 min) for the electrophoretic analysis on gel of SDS-polyacrylamide.

TMD-TEVcs-tTA = TMD-TEVcs-tTA / tetO-EGFP reporter expression in HEK293T cells; type: cell-based; details: control cells exposed to vehicle, absence of activator
Excerpt: A system was used based upon the expression of a fluorophore after nuclear translocation of a transactivator sequestered on the plasmatic membrane by a TEV recognition site (TEVcs).
In particular, the inventors made to express in HEK293T cells a “tetracycline operator EGFP conjugated” (tetO-EGFP) and a synthetic protein consisting of a transactivator controlled by tetracycline (tTA), bound to a transmembrane domain (TMD) through a TEV recognition site (TEVcs) (TMD-TEVcs-tTA) (FIG. 7).

B1: unica-secTEV: unica-TEV with N-terminal secretion signal and mutations for activity in the secretory pathway; SEQ ID Nr. 6 (protein)
chain: QGAQGESLFKGPRDYNPISSTICHLTQESDGHTTSLYGIGFGPFIITNKHLFRRNNGTLLVQSLHGVFKVKNTTTLQQHLIDGRDMIIIRMPKDFPPFPQKLKFREPQREERICLVTTNFQTKSGGSTCVVHYTGMLEDGKKFDSSRDRNKPFKFMLGKQEVIRGWEEGVAQMSVGQRAKLTISPDYAYGATGHGSGSGSGVKDLLQAWDLYYHVFRRISGPPGPGSGLWHEMWHEGLEEASRLYFGERNVKGMFEVLEPLHAMMERGPQTLKETSFNQAYGRDLMEAQEWCRKYMKSGSSGGSGSGIIPPHATLVFDVELLKLEGGSMSSMVSDTSSTFPSSDGTFWKHWIQTKDGQCGNPLVSTRDGFIVGIHSASNFGNTNNYFASVPKNFMELLTNQEAQQWVSGWRLNADSVLWGGHKVFMSKPEEPFQPVKEATQLMNEGGLE
modifications: left off: small tags and cut ends
- cleavage of pro-TEVcs-BDNF (background activity) ([1]; in absence of rapamycin, secretory pathway): absence of cleavage background
- maturation (cleavage) of pro-TEVcs-BDNF in vital cells ([1]; in presence of rapamycin, secretory pathway, Western blot): 41-kDa band was noted designating BDNF maturation in the living cells and capability of unica-secTEV to make pro-TEVcs-BDNF to mature in vital cells
- morphology of dendritic spines (CA1 pyramidal neurons): significant changes in the morphology of dendritic spines
- volume of heads of dendritic spines (CA1 pyramidal neurons): increase in the volume of heads of dendritic spines
- density of dendritic spines (CA1 pyramidal neurons; co-transfected pro-TEVcs-BDNF and dsRed2): significant increase in the density of dendritic spines
- ERK phosphorylation (TrkB): clear increase in the kinase phosphorylation

B2: purified mature BDNF: mature BDNF immunoprecipitated and purified from HEK293T cells co-transfected with unica-secTEV and treated with rapamycin (protein, UniProt P23560 129-247, looked up)
Neurotrophic factor BDNF: HSDPARRGELSVCDSISEWVTAADKKTAVDMSGGTVTVLEKVPVSKGQLKQYFYETKCNPMGYTKEGCRGIDKRHWNSQCRTTQSYVRALTMDSKKRIGWRFIRIDTSCVCTLTIKRGR
modifications: Neurotrophic factor BDNF
notes: mature BDNF immunoprecipitated and purified from HEK293T cells co-transfected with unica-secTEV and treated with rapamycin
- ERK phosphorylation [2]: significant increase in ERK phosphorylation signals
- ERK phosphorylation ([2]; listed as mature BNDF): induces a phosphorylation of ERK protein

B3: unica-TEV (unimolecular chemical-activatable TEV) (protein)
chain: GESLFKGPRDYNPISSTICHLTNESDGHTTSLYGIGFGPFIITNKHLFRRNNGTLLVQSLHGVFKVKNTTTLQQHLIDGRDMIIIRMPKDFPPFPQKLKFREPQREERICLVTTNFQTKSGGSTCVVHYTGMLEDGKKFDSSRDRNKPFKFMLGKQEVIRGWEEGVAQMSVGQRAKLTISPDYAYGATGHGSGSGSGVKDLLQAWDLYYHVFRRISGPPGPGSGLWHEMWHEGLEEASRLYFGERNVKGMFEVLEPLHAMMERGPQTLKETSFNQAYGRDLMEAQEWCRKYMKSGSSGGSGSGIIPPHATLVFDVELLKLEGGSMSSMVSDTSCTFPSSDGTFWKHWIQTKDGQCGNPLVSTRDGFIVGIHSASNFTNTNNYFASVPKNFMELLTNQEAQQWVSGWRLNADSVLWGGHKVFMVKPEEPFQPVKEATQLMN
- in vitro protease test after immunoprecipitation of both proteins, with rapamycin, SDS-PAGE [3]: SDS-PAGE migration of pro-peptide was noted

B4: unica-TEV: engineered single-chain TEV protease with uniRapR domain inserted between S120 and M121, rapamycin-activable; SEQ ID Nr. 5 (protein)
chain: GESLFKGPRDYNPISSTICHLTNESDGHTTSLYGIGFGPFIITNKHLFRRNNGTLLVQSLHGVFKVKNTTTLQQHLIDGRDMIIIRMPKDFPPFPQKLKFREPQREERICLVTTNFQTKSGGSTCVVHYTGMLEDGKKFDSSRDRNKPFKFMLGKQEVIRGWEEGVAQMSVGQRAKLTISPDYAYGATGHGSGSGSGVKDLLQAWDLYYHVFRRISGPPGPGSGLWHEMWHEGLEEASRLYFGERNVKGMFEVLEPLHAMMERGPQTLKETSFNQAYGRDLMEAQEWCRKYMKSGSSGGSGSGIIPPHATLVFDVELLKLEGGSMSSMVSDTSCTFPSSDGTFWKHWIQTKDGQCGNPLVSTRDGFIVGIHSASNFTNTNNYFASVPKNFMELLTNQEAQQWVSGWRLNADSVLWGGHKVFMVKPEEPFQPVKEATQLMN
modifications: Peptide sequence of unica-TEV engineered protease (1)..(440)
- kcat/Km ratio unica-TEV/wtTEV [4]: 2.81
- cleavage of pro-TEVcs-BDNF in vitro (pro-TEVcs-BDNF): SDS-PAGE migration of pro-peptide was noted
- cleavage of CFP-TEVcs-YFP (background activity) (CFP-TEVcs-YFP; in absence of rapamycin): absence of cleavage background
- cleavage of CFP-TEVcs-YFP (CFP-TEVcs-YFP; in presence of rapamycin): identical cleavage profile
- splitting of pro-TEVcs-BDNF in living cells by cytosolic protease ([1]; HEK293T, cytosolic localization of TEV protease): nor unica-TEV in presence of rapamycin, nor an active mutating form of TEV, split pro-TEVcs-BDNF

B5: unica-TEV without linker: unica-TEV construct with no linker (NL) between TEV and UniRapR (protein)
chain: GESLFKGPRDYNPISSTICHLTNESDGHTTSLYGIGFGPFIITNKHLFRRNNGTLLVQSLHGVFKVKNTTTLQQHLIDGRDMIIIRMPKDFPPFPQKLKFREPQREERICLVTTNFQTKSTCVVHYTGMLEDGKKFDSSRDRNKPFKFMLGKQEVIRGWEEGVAQMSVGQRAKLTISPDYAYGATGHGSGSGSGVKDLLQAWDLYYHVFRRISGPPGPGSGLWHEMWHEGLEEASRLYFGERNVKGMFEVLEPLHAMMERGPQTLKETSFNQAYGRDLMEAQEWCRKYMKSGSSGGSGSGIIPPHATLVFDVELLKLEMSSMVSDTSCTFPSSDGIFWKHWIQTKDGQCGSPLVSTRDGFIVGIHSASNFTNTNNYFTSVPKNFMELLTNQEAQQWVSGWRLNADSVLWGGHKVFMVKPEEPFQPVKEATQLMN
- EGFP signal (background) (TMD-TEVcs-tTA): substantially lower
- EGFP signal (background) (TMD-TEVcs-tTA; listed as NL construct): almost wholly absent

— patent US20230285520A1, “DEVELOPMENT OF A NEW ENGINEERED TOBACCO ETCH VIRUS (TEV) PROTEASE ACTIVABLE IN THE CYTOSOL OR SECRETORY PATHWAY” (Università Cattolica del Sacro Cuore, priority 2020, published 2023)
